For orientation: stoichiometry N means a count of units in the complex or per binding partner.

Stoichiometry N data for one substance are collected here from publication PMC12856154.

This test addresses persulfide dioxygenase from Pseudomonas aeruginosa (PaPDO) (Pseudomonas aeruginosa). Nature of the test: SEC; Superdex 75 10/300, 20 mM Tris-HCl pH 8.0, 200 mM NaCl, 1 mL/min; calibrated with protein standards; elution at 10.8 mL.

“persulfide dioxygenase from Pseudomonas aeruginosa (PaPDO) (enzyme)” yielded a stoichiometry N of 2.
